Measured values as given in the supplement of paper PMC10567573.

B1: FCHSD1 (parent)
chain: LEAAEVILEHAHRGEQTTSQVSWE

Variants of: B1
Assay: protein stability index of a GFP-peptide fusion (GPS, HEK-293T) (PSI 1-6); higher = more stable
Settings: c terminus: a fixed tail appended
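Note: lentivirally expressed fusions sorted by FACS into six bins by GFP to DsRed ratio, PSI derived from sequencing read proportions per bin multiplied by bin number.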

Protein stability index of substitutions, site by site:
E24: S 4.46 | Y 3.99 | P 4.3 | M 2.72 | Q 3.95 | K 4.64 | A 3.2 | H 4 | C 3.88 | R 3.47 | L 2.95 | F 2.65 | N 3.92 | G 2.57 | V 3.07 | I 2.01 | W 2.66
S19: V 2.37 | K 4.45 | L 2.8 | Q 4.89 | N 4.7 | R 4.42 | P 4.7 | M 3 | T 4.21 | I 3.02 | H 4.14 | Y 2.64
S22: P 5.17 | A 4.57 | M 4.54 | E 4.68 | D 4.77 | F 3.71 | I 4.41 | G 4.89 | Y 4.63 | T 3.8 | C 3.85 | K 4.93 | N 4.47 | V 5.24 | Q 4.98 | R 3.74 | L 3.79
V21: L 4.58 | F 3.3 | A 5.21 | G 4.94 | E 5.07 | R 4.18 | P 5.55 | M 4.32 | Y 3.9 | N 4.92 | I 3.5 | C 4.62 | Q 4.44 | K 4.68 | T 4.64 | S 5.51
Q20: D 5.02 | H 4.2 | K 5.02 | P 4.38 | S 4.51 | R 4.45 | N 4.86 | T 3.86 | L 4.17 | A 3.72 | M 4.34 | C 3.95 | F 3.76 | Y 4.26 | I 4.42 | V 4.02
W23: D 5.55 | I 4.2 | L 5.12 | Q 5.54 | K 4.41 | Y 4.71 | M 4.23 | A 5.32 | S 5.24 | R 4.58 | E 5.79 | H 5.61 | T 4.9 | C 3.4 | F 4.64 | N 3.89 | P 5.29
